The labels stand for the following.
B1: GST-tagged Nup153 (895–1475) (domain or fragment, UniProt P49790 895-1475, looked up)
chain: SNSAASSSFKFGVSSSSSGPSQTLTSTGNFKFGDQGGFKIGVSSDSGSINPMSEGFKFSKPIGDFKFGVSSESKPEEVKKDSKNDNFKFGLSSGLSNPVSLTPFQFGVSNLGQEEKKEELPKSSSAGFSFGTGVINSTPAPANTIVTSENKSSFNLGTIETKSASVAPFTCKTSEAKKEEMPATKGGFSFGNVEPASLPSASVFVLGRTEEKQQEPVTSTSLVFGKKADNEEPKCQPVFSFGNSEQTKDENSSKSTFSFSMTKPSEKESEQPAKATFAFGAQTSTTADQGAAKPVFSFLNNSSSSSSTPATSAGGGIFGSSTSSSNPPVATFVFGQSSNPVSSSAFGNTAESSTSQSLLFSQDSKLATTSSTGTAVTPFVFGPGASSNNTTTSGFGFGATTTSSSAGSSFVFGTGPSAPSASPAFGANQTPTFGQSQGASQPNPPGFGSISSSTALFPTGSQPAPPTFGTVSSSSQPPVFGQQPSQSAFGSGTTPNSSSAFQFGSSTTNFNFTNNSPSGVFTFGANSSTPAASAQPSGSGGFPFNQSPAAFTVGSNGKNVFSSSGTSFSGRKIKTAVRRRK
B2: importin β m-N/m-C (natural protein)
chain: MELITILEKTVSPDRLELEAAQKFLERAAVENLPTFLVELSRVLANPGNSQVARVAAGLQIKNSLTSKDPDIKAQYQQRWLAIDANARREVKNYVLQTLGTETYRPSSASQCVAGIACAEIPVNQWPELIPQLVANVTNPNSTEHMKESTLEAIGYICQDIDPEQLQDKSNEILTAIAQGMRKEEPSNNVKLAATNALLNSLEFTKANFDKESERHAIMQVVCEATQCPDTRVRVAALQNLVKIMSLYYQYMETAMGPALFARTIEAMKSDIDEVALQGIEFWSNVCDEEMDLAIEASEAAEQGRPPEHTSKFYAKGALQYLVPILTQTLTKQDENDDDDDWNPCKAAGVCLMLLATCCEDDIVPHVLPFIKEHIKNPDWRYRDAAVMAFGCILEGPEPSQLKPLVIQAMPTLIELMKDPSVVVRDTAAWTVGRICELLPEAAINDVYLAPLLQCLIEGLSAEPRVASNVCWAFSSLAEAAYEAADVADDQEEPATYCLSSSFELIVQKLLETTDRPDGHQNNLRSSAYESLMEIVKNSAKDCYPAVQKTTLVIMERLQQVLQMESHIQSTSDRIQFNDLQSLLCATLQNVLRKVQHQDALQISDVVMASLDRMFQSTAGSGGVQEDALMAVSTLVEVLGGEFLKYMEAFKPFLGIGLKNYAEYQVCLAAVGLVGDLCRALQSNIIPACDEVMQLLLENLGNENVHRSVKPQILSVFGDIALAIGGEFKKYLEVVLNTLQQASQAQVDKSDYDMVDYLNELRESCLEAYTGIVQGLKGDQENVHPDVMLVQPRVEFILSFIDHIAGDEDHTDGVVACAAGLIGDLCTAFGKDVLKLVEARPMIHELLTEGRRSKTNKAKTLATWATKELRKLKNQA
B3: importin β (304–876) F688A (domain or fragment, human, UniProt Q14974 304-876, looked up)
chain: GRPPEHTSKFYAKGALQYLVPILTQTLTKQDENDDDDDWNPCKAAGVCLMLLATCCEDDIVPHVLPFIKEHIKNPDWRYRDAAVMAFGCILEGPEPSQLKPLVIQAMPTLIELMKDPSVVVRDTAAWTVGRICELLPEAAINDVYLAPLLQCLIEGLSAEPRVASNVCWAFSSLAEAAYEAADVADDQEEPATYCLSSSFELIVQKLLETTDRPDGHQNNLRSSAYESLMEIVKNSAKDCYPAVQKTTLVIMERLQQVLQMESHIQSTSDRIQFNDLQSLLCATLQNVLRKVQHQDALQISDVVMASLLRMFQSTAGSGGVQEDALMAVSTLVEVLGGEFLKYMEAFKPFLGIGLKNYAEYQVCLAAVGLVGDLCRALQSNIIPACDEVMQLLLENLGNENVHRSVKPQILSVFGDIALAIGGEFKKYLEVVLNTLQQASQAQVDKSDYDMVDYLNELRESCLEAYTGIVQGLKGDQENVHPDVMLVQPRVEFILSFIDHIAGDEDHTDGVVACAAGLIGDLCTAFGKDVLKLVEARPMIHELLTEGRRSKTNKAKTLATWATKELRKLKNQA

Targets include importin β I178A/E214A (human, UniProt Q14974 1-876, I178A | E214A); importin β F217A (human, UniProt Q14974 1-876, F217A); importin β I178A (human, UniProt Q14974 1-876, I178A); importin β F217A/Y255A (human, UniProt Q14974 1-876, F217A | Y255A); importin β I178D/Y255A (human, UniProt Q14974 1-876, I178D | Y255A); importin β E214A (human, UniProt Q14974 1-876, E214A); importin β I178D (human, UniProt Q14974 1-876, I178D); importin β I263R (human, UniProt Q14974 1-876, I263R); importin β Y255A (human, UniProt Q14974 1-876, Y255A); GST–RanGTP (UniProt P62826 1-216).

Experiment in all cases: ELISA
For assay [1], the target named is T1, importin β I178A/F217A/Y255A/I263R (m-N) (human, UniProt Q14974 1-876, I178A | F217A | Y255A | I263R).
Assay [2] addresses T2, wild-type importin β (human, UniProt Q14974 1-876).
Assay [3] addresses importin β L612D/F688A (m-C) (human, UniProt Q14974 1-876, L612D | F688A).
The target in assay [4] is T1, importin β I178A/F217A/Y255A/I263R (m-N). The source holds these as a separate data set.
Assay [5] has as its target T2, wild-type importin β. This is another data set of the same source.
In assay [6] the target is B1.

Read-outs that look alike come from different tables or passages of the source.

For orientation: Kd means the equilibrium constant for the complex coming apart.

Regarding B1, the dissociation constant (Kd) turned out to be 27 ± 4.1 nM in the assay with importin β I178A/E214A; 2.1 ± 0.2 nM in the assay with importin β F217A; 1.1 ± 0.1 nM with importin β I178A; 32.4 ± 5.3 nM with importin β F217A/Y255A; 68.3 ± 9 nM in the assay with importin β I178D/Y255A; 1.8 ± 0.1 nM with importin β E214A. For the same molecule, the dissociation constant (Kd) in the assay with importin β I178D was found to be 40.1 ± 9.1 nM; in assay [1] it was 99 ± 15.2 nM; in the assay with importin β I263R, 2.5 ± 0.3 nM; with importin β Y255A it was 3.5 ± 0.3 nM; with wild-type importin β [2], 1.1 ± 0.1 nM; in assay [3], 1.2 ± 0.1 nM. The dissociation constant Kd turned out to be 91.3 ± 11.8 nM in assay [4] and 1 ± 0.1 nM with wild-type importin β [5].
In turn, B2 had a Kd with GST–RanGTP of 4.4 nM.
In the case of B3, the “fold decrease in affinity against importin β (304–876)” value in assay [6] is roughly 2 fold.

The record behind these values is publication PMC2172684 (The Journal of Cell Biology, 2003).
